Like-named read-outs stand apart in the source and are kept apart here.
Assays:
[1] = molecular target: ^bioχψδγ3δ’ clamp loader complex containing N-terminally biotinylated χ (E. coli) (UniProt P28905); assay: SPR
[2] = molecular target: ^bioχψδγ3δ’ clamp loader complex containing N-terminally biotinylated χ (E. coli) (UniProt P28905); assay: SPR; remark: listed apart in the source
cryo-EM structure = molecular target: the molecule itself; assay: cryo-EM structure

Molecule	Kd [1]	Kd [2]	binding result (cryo-EM structure)
E. coli β2 sliding clamp (from UniProt P0A988) (natural protein)	400 nM	13.3 nM	
γ subunit of the E. coli clamp loader complex (natural protein) MSYQVLARKWRPQTFADVVGQEHVLTALANGLSLGRIHHAYLFSGTRGVGKTSIARLLAKGLNCETGITATPCGVCDNCREIEQGRFVDLIEIDAASRTKVEDTRDLLDNVQYAPARGRFKVYLIDEVHMLSRHSFNALLKTLEEPPEHVKFLLATTDPQKLPVTILSRCLQFHLKALDVEQIRHQLEHILNEEHIAHEPRALQLLARAAEGSLRDALSLTDQAIASGDGQVSTQAVSAMLGTLDDDQALSLVEAMVEANGERVMALINEAAARGIEWEALLVEMLGLLHRIAMVQLSPAALGNDMAAIELRMRELARTIPPTDIQLYYQTLLIGRKELPYAPDRRMGVEMTLLRALAFHPRMPLPEPEVPRQSFAPVAPTAVMTPTQVPPQPQSAPQQAPTVPLPETTSQVLAARQQLQRVQGATKAKKE			binds

Source: paper PMC11436948 (Nature Communications, 2024)
